Article PMC5703266

Target: recombinant soluble tissue factor sTF (1–219) (UniProt P13726)
Sequence of UniProt P13726 (P13726 33-251): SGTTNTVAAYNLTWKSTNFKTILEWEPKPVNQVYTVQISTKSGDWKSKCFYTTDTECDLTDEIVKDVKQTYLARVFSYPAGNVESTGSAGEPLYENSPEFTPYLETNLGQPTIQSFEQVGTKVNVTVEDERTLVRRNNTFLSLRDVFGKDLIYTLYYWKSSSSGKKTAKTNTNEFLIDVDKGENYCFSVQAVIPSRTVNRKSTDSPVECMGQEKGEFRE

## coagulation factor VIIa (FVIIa) (enzyme)
  activation of FX in solution, kcat/KM: 663 M⁻¹ s⁻¹
